For this test, the target named is recombinant HAT1 holoenzyme (HAT1 and RbAp46) (UniProt O14929;Q16576). The experiment in a line: pull-down.
recombinant HAT1 holoenzyme (HAT1 and RbAp46), sequence (O14929 whole entry, chain 1 of 2): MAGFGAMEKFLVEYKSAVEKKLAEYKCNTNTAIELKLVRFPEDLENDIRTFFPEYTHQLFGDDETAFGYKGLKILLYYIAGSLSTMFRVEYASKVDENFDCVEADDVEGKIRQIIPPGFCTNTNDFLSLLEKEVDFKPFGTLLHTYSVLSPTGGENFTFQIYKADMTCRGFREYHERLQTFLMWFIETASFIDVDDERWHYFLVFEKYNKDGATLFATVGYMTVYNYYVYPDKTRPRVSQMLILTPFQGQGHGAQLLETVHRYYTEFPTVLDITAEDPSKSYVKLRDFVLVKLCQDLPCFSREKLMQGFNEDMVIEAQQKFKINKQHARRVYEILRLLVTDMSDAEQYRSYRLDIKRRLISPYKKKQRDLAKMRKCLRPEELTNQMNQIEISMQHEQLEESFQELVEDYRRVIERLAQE
recombinant HAT1 holoenzyme (HAT1 and RbAp46), sequence (Q16576 whole entry, chain 2 of 2): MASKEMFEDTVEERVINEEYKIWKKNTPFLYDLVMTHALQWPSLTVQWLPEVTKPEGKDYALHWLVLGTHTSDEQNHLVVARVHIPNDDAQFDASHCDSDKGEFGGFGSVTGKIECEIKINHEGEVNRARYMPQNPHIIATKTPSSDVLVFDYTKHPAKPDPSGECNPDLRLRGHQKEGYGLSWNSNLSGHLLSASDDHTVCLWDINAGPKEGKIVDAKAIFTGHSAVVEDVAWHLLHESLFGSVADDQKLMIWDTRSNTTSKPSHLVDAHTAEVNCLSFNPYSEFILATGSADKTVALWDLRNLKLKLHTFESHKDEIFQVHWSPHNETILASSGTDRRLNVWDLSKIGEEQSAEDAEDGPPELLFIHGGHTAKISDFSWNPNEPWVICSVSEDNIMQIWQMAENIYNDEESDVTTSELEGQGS

B1: GST-tagged ASF1B (natural protein)
chain: MAKVSVLNVAVLENPSPFHSPFRFEISFECSEALADDLEWKIIYVGSAESEEFDQILDSVLVGPVPAGRHMFVFQADAPNPSLIPETDAVGVTVVLITCTYHGQEFIRVGYYVNNEYLNPELRENPPMKPDFSQLQRNILASNPRVTRFHINWDNNMDRLEAIETQDPSLGCGLPLNCTPIKGLGLPGCIPGLLPENSMDCI
With B1, the binding result is on record as “binds”.

Source of the values: PMC2988979 (Nature structural & molecular biology, 2010).
